According to US20200283478A1 (Genentech, published 2020):
Bridge positions count the residues as written; N and C are the ends. Ends that are not written are not given here. * marks the point of attachment. Fmoc = O=C(OCC1c2ccccc2-c2ccccc21)*

Tests used:
His-tagged PCSK9Δhelix = target: T1, His-tagged PCSK9Δhelix (human, UniProt Q8NBP7 31-152; Q8NBP7 168-692); test: TR-FRET competition (PCSK9Δhelix/Ab20 assay); competitor Ab20
T1 construct: Human PCSK9 M1-Q692 with an engineered TEV site, cut by TEV protease; new N-terminus of the catalytic domain is S-A168; also called His-PCSK9Δhelix; not shown: His tag
T1 sequence (Q8NBP7 31-152, stated change not applied, chain 1 of 2): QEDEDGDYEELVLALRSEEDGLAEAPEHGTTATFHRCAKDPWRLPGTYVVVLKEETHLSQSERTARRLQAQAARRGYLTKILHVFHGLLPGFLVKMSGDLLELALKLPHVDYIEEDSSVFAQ
T1 sequence (Q8NBP7 other isoform, or with tags, fused parts or gaps mutant, chain 2 of 2): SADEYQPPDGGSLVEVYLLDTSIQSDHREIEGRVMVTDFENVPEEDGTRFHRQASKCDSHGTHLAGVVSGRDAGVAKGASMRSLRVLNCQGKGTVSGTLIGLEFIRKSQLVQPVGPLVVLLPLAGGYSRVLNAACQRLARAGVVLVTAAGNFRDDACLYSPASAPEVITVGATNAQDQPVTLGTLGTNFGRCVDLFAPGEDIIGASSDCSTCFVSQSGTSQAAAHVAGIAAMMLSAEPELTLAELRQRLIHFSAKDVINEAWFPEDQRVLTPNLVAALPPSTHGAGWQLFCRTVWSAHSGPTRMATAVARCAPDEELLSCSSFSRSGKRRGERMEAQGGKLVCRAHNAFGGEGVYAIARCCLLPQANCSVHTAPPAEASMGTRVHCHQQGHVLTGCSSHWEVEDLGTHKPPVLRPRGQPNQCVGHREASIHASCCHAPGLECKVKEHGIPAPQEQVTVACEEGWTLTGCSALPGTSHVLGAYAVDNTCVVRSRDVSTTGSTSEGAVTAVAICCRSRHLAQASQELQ

[1] = target: T2, His-tagged, full-length PCSK9 (human, UniProt Q8NBP7 31-692); test: TR-FRET competition (PCSK9/EGF(A) assay); competitor EGF(A)-Fc;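 note: proximity signal from anti-His APC on PCSK9 paired with anti-Fc europium on the Fc ligand, read as normalized TR-FRET ratio across compound dilutions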
T2 construct: secreted PCSK9 is autocatalytically cleaved into prodomain and catalytic domain + CRD (from S153), which stay associated; also called His-PCSK9; proprotein convertase subtilisin/kexin type 9; not shown: His tag
T2 sequence (Q8NBP7 31-692 limits assumed): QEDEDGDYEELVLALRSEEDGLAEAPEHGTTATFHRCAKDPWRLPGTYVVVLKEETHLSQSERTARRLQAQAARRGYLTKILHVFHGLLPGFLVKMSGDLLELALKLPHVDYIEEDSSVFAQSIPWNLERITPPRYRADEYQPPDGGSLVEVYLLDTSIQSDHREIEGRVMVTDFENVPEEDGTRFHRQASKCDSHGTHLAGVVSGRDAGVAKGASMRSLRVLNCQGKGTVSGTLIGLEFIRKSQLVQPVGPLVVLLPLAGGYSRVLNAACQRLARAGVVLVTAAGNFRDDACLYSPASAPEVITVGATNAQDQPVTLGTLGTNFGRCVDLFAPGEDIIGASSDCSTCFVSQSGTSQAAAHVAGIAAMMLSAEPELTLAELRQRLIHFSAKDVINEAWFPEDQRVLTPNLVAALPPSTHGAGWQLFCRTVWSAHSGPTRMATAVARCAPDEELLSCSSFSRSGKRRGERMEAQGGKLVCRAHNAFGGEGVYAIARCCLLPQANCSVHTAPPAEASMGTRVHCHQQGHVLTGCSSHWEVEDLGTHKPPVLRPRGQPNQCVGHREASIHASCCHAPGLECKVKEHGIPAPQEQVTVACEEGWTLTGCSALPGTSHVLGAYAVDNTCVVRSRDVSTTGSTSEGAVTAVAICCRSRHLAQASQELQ

[2] = target: T3, proprotein convertase subtilisin/kexin type 9 (PCSK9) (human, UniProt Q8NBP7 31-692); test: phage spot ELISA
T3 construct: His-tagged full-length PCSK9 in TR-FRET and SPR, biotinylated in phage ELISA; secreted protein is autoprocessed (prodomain plus catalytic/CRD chain starting at S153); also called rec.PCSK9; His-PCSK9
T3 sequence (Q8NBP7 other isoform, or with tags, fused parts or gaps limits assumed): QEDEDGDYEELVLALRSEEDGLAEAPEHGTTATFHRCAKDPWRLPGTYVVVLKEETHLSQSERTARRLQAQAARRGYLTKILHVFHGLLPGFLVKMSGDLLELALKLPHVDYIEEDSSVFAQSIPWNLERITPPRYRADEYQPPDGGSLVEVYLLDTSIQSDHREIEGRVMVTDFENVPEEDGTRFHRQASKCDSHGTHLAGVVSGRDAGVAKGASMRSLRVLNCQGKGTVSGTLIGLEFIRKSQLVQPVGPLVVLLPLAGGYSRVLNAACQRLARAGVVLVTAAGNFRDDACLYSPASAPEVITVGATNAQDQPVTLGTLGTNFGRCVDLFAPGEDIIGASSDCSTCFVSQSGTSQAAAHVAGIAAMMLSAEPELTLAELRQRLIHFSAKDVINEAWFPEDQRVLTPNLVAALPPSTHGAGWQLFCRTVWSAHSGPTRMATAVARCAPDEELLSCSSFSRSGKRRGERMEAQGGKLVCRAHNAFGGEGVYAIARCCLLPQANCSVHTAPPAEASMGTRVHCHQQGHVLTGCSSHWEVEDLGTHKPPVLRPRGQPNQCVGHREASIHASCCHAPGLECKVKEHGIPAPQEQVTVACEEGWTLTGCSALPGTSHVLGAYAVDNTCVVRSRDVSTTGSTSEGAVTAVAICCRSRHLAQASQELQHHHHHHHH

PCSK9Δhelix = target: T4, PCSK9Δhelix (human, Chemically biotinylated in the phage ELISAs; the site is not given.); test: phage spot ELISA
T4 construct: construct M1-Q692 with engineered TEV site, cleaved by TEV; also called His-PCSK9Δhelix; open groove PCSK9Δhelix
T4 sequence (prodomain, as listed by the source mutant limits assumed, chain 1 of 2): as the sequence (Q8NBP7 31-152, stated change not applied, chain 1 of 2) above
T4 sequence (chain, as listed by the source mutant limits assumed, chain 2 of 2): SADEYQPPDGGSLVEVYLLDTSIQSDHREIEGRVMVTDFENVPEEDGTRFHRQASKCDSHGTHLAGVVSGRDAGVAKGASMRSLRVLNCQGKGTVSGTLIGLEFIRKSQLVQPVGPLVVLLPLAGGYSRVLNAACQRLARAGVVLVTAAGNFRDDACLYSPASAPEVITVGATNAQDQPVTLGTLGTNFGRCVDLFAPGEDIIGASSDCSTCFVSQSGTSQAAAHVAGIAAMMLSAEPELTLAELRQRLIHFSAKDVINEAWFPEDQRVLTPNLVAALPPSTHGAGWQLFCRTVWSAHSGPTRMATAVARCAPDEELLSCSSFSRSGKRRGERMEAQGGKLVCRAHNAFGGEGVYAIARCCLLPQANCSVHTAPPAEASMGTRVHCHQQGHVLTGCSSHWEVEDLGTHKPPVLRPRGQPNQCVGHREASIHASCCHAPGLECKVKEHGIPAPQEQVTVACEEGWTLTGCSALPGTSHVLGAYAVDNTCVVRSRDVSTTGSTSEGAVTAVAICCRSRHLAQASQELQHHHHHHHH

B1: Compound 40 (Ac-GSG-CWNLKRIGSQGCW-NH2) (peptide)
peptide: Ac-GSGCWNLKRIGSQGCW-NH2
modifications: disulfide 4-15
SMILES: CC[C@H](C)[C@@H]1NC(=O)[C@H](CCCNC(=N)N)NC(=O)[C@H](CCCCN)NC(=O)[C@H](CC(C)C)NC(=O)[C@H](CC(N)=O)NC(=O)[C@H](Cc2c[nH]c3ccccc23)NC(=O)[C@@H](NC(=O)CNC(=O)[C@H](CO)NC(=O)CNC(C)=O)CSSC[C@@H](C(=O)N[C@@H](Cc2c[nH]c3ccccc23)C(N)=O)NC(=O)CNC(=O)[C@H](CCC(N)=O)NC(=O)[C@H](CO)NC(=O)CNC1=O
IC50 (His-tagged PCSK9Δhelix): 2.41 µM
IC50 [1]: 5.96 µM

B2: Compound 66 (WCLWNLKRIGSQCWF) (peptide)
peptide: H-WCLWNLKRIGSQCWF-OH
modifications: disulfide 2-13
SMILES: CC[C@H](C)[C@@H]1NC(=O)[C@H](CCCNC(=N)N)NC(=O)[C@H](CCCCN)NC(=O)[C@H](CC(C)C)NC(=O)[C@H](CC(N)=O)NC(=O)[C@H](Cc2c[nH]c3ccccc23)NC(=O)[C@H](CC(C)C)NC(=O)[C@@H](NC(=O)[C@@H](N)Cc2c[nH]c3ccccc23)CSSC[C@@H](C(=O)N[C@@H](Cc2c[nH]c3ccccc23)C(=O)N[C@@H](Cc2ccccc2)C(=O)O)NC(=O)[C@H](CCC(N)=O)NC(=O)[C@H](CO)NC(=O)CNC1=O
IC50 (His-tagged PCSK9Δhelix): 12 µM
IC50 [1]: 31.3 µM

SGNCWSSLRGICENLG [SEQ ID NO 367]
ELISA [2]: 0.609
s/n [2]: 1.47
ELISA (PCSK9Δhelix): 0.601
s/n (PCSK9Δhelix): 5.2

Ac-WCLWNLKRIGSQCWF (disulfide 2-13) [Compound 90 (Ac-WCLWNLKRIGSQCWF)]
IC50 (His-tagged PCSK9Δhelix): 7.38 µM
IC50 [1]: 29.2 µM

B3: Compound 39 (Ac-CWNLKRIGSQGCW-NH2) (peptide)
peptide: Ac-CWNLKRIGSQGCW-NH2
modifications: disulfide 1-12
SMILES: CC[C@H](C)[C@@H]1NC(=O)[C@H](CCCNC(=N)N)NC(=O)[C@H](CCCCN)NC(=O)[C@H](CC(C)C)NC(=O)[C@H](CC(N)=O)NC(=O)[C@H](Cc2c[nH]c3ccccc23)NC(=O)[C@@H](NC(C)=O)CSSC[C@@H](C(=O)N[C@@H](Cc2c[nH]c3ccccc23)C(N)=O)NC(=O)CNC(=O)[C@H](CCC(N)=O)NC(=O)[C@H](CO)NC(=O)CNC1=O
IC50 (His-tagged PCSK9Δhelix): 37.5 µM
IC50 [1]: > 50 µM

B4: Compound 88 (Ac-FCLWNLARIGSQCWF-NH2) (peptide)
peptide: Ac-FCLWNLARIGSQCWF-NH2
modifications: disulfide 2-13
SMILES: CC[C@H](C)[C@@H]1NC(=O)[C@H](CCCNC(=N)N)NC(=O)[C@H](C)NC(=O)[C@H](CC(C)C)NC(=O)[C@H](CC(N)=O)NC(=O)[C@H](Cc2c[nH]c3ccccc23)NC(=O)[C@H](CC(C)C)NC(=O)[C@@H](NC(=O)[C@H](Cc2ccccc2)NC(C)=O)CSSC[C@@H](C(=O)N[C@@H](Cc2c[nH]c3ccccc23)C(=O)N[C@@H](Cc2ccccc2)C(N)=O)NC(=O)[C@H](CCC(N)=O)NC(=O)[C@H](CO)NC(=O)CNC1=O
IC50 (His-tagged PCSK9Δhelix): 7.46 µM
IC50 [1]: 17.9 µM

SGPRTYLRGLVD [SEQ ID NO 366]
ELISA [2]: 0.355
s/n [2]: 3.1
ELISA (PCSK9Δhelix): 0.375
s/n (PCSK9Δhelix): 3.44

B5: Compound 98 (Fmoc-GSG-CWNLKRIGSQGC-NH2) (peptide)
peptide: Fmoc-GSGCWNLKRIGSQGC-NH2
modifications: disulfide 4-15
SMILES: CC[C@H](C)[C@@H]1NC(=O)[C@H](CCCNC(=N)N)NC(=O)[C@H](CCCCN)NC(=O)[C@H](CC(C)C)NC(=O)[C@H](CC(N)=O)NC(=O)[C@H](Cc2c[nH]c3ccccc23)NC(=O)[C@@H](NC(=O)CNC(=O)[C@H](CO)NC(=O)CNC(=O)OCC2c3ccccc3-c3ccccc32)CSSC[C@@H](C(N)=O)NC(=O)CNC(=O)[C@H](CCC(N)=O)NC(=O)[C@H](CO)NC(=O)CNC1=O
IC50 (His-tagged PCSK9Δhelix): 3.6 µM
IC50 [1]: 37.6 µM

SGVCSDHYIGGKEVRC [SEQ ID NO 378]
ELISA [2]: 1.12
s/n [2]: 6.19
